Test results reported in article PMC4613500 (2015).

What was measured:
SPR = target: the molecule itself; experiment: SPR
[1] = target: the molecule itself; experiment: sedimentation velocity analytical ultracentrifugation

B1: Chordin (protein)
chain: AGPEPPVLPIRSEKEPLPVRGAAGCTFGGKVYALDETWHPDLGEPFGVMRCVLCACEAPQWGRRTRGPGRVSCKNIKPECPTPACGQPRQLPGHCCQTCPQERSSSERQPSGLSFEYPRDPEHRSYSDRGEPGAEERARGDGHTDFVALLTGPRSQAVARARVSLLRSSLRFSISYRRLDRPTRIRFSDSNGSVLFEHPAAPTQDGLVCGVWRAVPRLSLRLLRAEQLHVALVTLTHPSGEVWGPLIRHRALAAETFSAILTLEGPPQQGVGGITLLTLSDTEDSLHFLLLFRGLLEPRSGGLTQVPLRLQILHQGQLLRELQANVSAQEPGFAEVLPNLTVQEMDWLVLGELQMALEWAGRPGLRISGHIAARKSCDVLQSVLCGADALIPVQTGAAGSASLTLLGNGSLIYQVQVVGTSSEVVAMTLETKPQRRDQRTVLCHMAGLQPGGHTAVGICPGLGARGAHMLLQNELFLNVGTKDFPDGELRGHVAALPYCGHSARHDTLPVPLAGALVLPPVKSQAAGHAWLSLDTHCHLHYEVLLAGLGGSEQGTVTAHLLGPPGTPGPRRLLKGFYGSEAQGVVKDLEPELLRHLAKGMASLMITTKGSPRGELRGQVHIANQCEVGGLRLEAAGAEGVRALGAPDTASAAPPVVPGLPALAPAKPGGPGRPRDPNTCFFEGQQRPHGARWAPNYDPLCSLCTCQRRTVICDPVVCPPPSCPHPVQAPDQCCPVCPEKQDVRDLPGLPRSRDPGEGCYFDGDRSWRAAGTRWHPVVPPFGLIKCAVCTCKGGTGEVHCEKVQCPRLACAQPVRVNPTDCCKQCPVGSGAHPQLGDPMQADGPRGCRFAGQWFPESQSWHPSVPPFGEMSCITCRCGAGVPHCERDDCSLPLSCGSGKESRCCSRCTAHRRPAPETRTDPELEKEAEGS
- Kd (SPR): 3.05 nM
- Kd [1]: 3300 nM

B2: Chordin ∆C ∆C (C-terminally tolloid-cleaved fragment, lacking vWC4) (protein)
chain: AGPEPPVLPIRSEKEPLPVRGAAGCTFGGKVYALDETWHPDLGEPFGVMRCVLCACEAPQWGRRTRGPGRVSCKNIKPECPTPACGQPRQLPGHCCQTCPQERSSSERQPSGLSFEYPRDPEHRSYSDRGEPGAEERARGDGHTDFVALLTGPRSQAVARARVSLLRSSLRFSISYRRLDRPTRIRFSDSNGSVLFEHPAAPTQDGLVCGVWRAVPRLSLRLLRAEQLHVALVTLTHPSGEVWGPLIRHRALAAETFSAILTLEGPPQQGVGGITLLTLSDTEDSLHFLLLFRGLLEPRSGGLTQVPLRLQILHQGQLLRELQANVSAQEPGFAEVLPNLTVQEMDWLVLGELQMALEWAGRPGLRISGHIAARKSCDVLQSVLCGADALIPVQTGAAGSASLTLLGNGSLIYQVQVVGTSSEVVAMTLETKPQRRDQRTVLCHMAGLQPGGHTAVGICPGLGARGAHMLLQNELFLNVGTKDFPDGELRGHVAALPYCGHSARHDTLPVPLAGALVLPPVKSQAAGHAWLSLDTHCHLHYEVLLAGLGGSEQGTVTAHLLGPPGTPGPRRLLKGFYGSEAQGVVKDLEPELLRHLAKGMASLMITTKGSPRGELRGQVHIANQCEVGGLRLEAAGAEGVRALGAPDTASAAPPVVPGLPALAPAKPGGPGRPRDPNTCFFEGQQRPHGARWAPNYDPLCSLCTCQRRTVICDPVVCPPPSCPHPVQAPDQCCPVCPEKQDVRDLPGLPRSRDPGEGCYFDGDRSWRAAGTRWHPVVPPFGLIKCAVCTCKGGTGEVHCEKVQCPRLACAQPVRVNPTDCCKQCPVGSGA
- Kd (SPR): 3.15 nM
